# Data taken from patent US20250163127A1.
# T1: CD96 (human) (UniProt P40200)
# T1 sequence: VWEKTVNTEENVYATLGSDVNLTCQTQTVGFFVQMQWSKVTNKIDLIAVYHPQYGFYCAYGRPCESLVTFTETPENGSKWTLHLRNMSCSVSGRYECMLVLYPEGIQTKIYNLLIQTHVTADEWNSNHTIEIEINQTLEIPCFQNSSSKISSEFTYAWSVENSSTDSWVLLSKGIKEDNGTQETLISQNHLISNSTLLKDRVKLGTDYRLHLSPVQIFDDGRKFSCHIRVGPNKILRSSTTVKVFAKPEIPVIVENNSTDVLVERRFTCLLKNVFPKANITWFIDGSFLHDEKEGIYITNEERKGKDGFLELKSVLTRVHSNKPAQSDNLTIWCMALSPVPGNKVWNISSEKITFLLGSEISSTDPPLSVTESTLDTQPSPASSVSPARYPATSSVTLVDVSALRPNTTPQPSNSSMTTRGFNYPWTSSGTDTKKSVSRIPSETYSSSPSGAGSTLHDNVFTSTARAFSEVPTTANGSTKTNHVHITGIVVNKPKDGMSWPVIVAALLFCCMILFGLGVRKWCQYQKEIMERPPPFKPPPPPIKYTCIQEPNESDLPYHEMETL
# T2: CD226 (human) (UniProt Q15762)
# T2 sequence: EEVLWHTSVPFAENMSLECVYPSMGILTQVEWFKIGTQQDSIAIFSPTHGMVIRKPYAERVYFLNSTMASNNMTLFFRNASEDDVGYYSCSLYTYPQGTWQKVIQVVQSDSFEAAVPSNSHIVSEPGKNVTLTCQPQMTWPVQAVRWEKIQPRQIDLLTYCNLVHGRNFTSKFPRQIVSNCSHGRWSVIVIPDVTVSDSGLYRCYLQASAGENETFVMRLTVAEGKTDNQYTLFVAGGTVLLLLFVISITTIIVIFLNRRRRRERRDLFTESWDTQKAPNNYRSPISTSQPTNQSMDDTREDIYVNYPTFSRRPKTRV
# Legend:
# human PD-1 (human) = human PD-1 (human) (UniProt Q15116); assay: flow cytometry, CHO/PD-1 cells, 100 nM, anti-Flag
# CD28 (human) = CD28 (human) (UniProt P10747); assay: flow cytometry, Jurkat cells (endogenous CD28), 100 nM, anti-Flag
# human CTLA-4 (human) = assay: flow cytometry, CHO/CTLA-4 cells, 100 nM, anti-Flag
# CTLA-4 (human) = assay: flow cytometry on HEK293 cells transfected with CTLA4
# PD-L1 (human) = assay: flow cytometry on HEK293 cells transfected with PD-L1
# CD96 (human) = biological target: T1, CD96 (human); assay: flow cytometry, transfected HEK293 cells
# CD226 (human) = biological target: T2, CD226 (human); assay: flow cytometry, transfected HEK293 cells
# CTLA-4 (human), sequence (chain, as listed by the source): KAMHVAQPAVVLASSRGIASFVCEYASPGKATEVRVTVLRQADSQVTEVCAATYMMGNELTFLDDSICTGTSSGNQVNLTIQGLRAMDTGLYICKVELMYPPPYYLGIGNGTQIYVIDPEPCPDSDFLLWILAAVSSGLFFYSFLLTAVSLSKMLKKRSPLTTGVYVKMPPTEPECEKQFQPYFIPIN
# PD-L1 (human), sequence (chain, as listed by the source): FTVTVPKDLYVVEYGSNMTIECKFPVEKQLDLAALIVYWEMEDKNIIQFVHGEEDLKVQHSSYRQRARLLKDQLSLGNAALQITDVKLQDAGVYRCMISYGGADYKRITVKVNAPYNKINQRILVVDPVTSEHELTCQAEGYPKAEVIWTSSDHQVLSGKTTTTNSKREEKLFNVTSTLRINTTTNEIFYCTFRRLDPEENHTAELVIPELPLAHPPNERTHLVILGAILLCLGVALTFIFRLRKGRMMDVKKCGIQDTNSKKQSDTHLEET
# human PD-1 (human), sequence (Q15116 25-288): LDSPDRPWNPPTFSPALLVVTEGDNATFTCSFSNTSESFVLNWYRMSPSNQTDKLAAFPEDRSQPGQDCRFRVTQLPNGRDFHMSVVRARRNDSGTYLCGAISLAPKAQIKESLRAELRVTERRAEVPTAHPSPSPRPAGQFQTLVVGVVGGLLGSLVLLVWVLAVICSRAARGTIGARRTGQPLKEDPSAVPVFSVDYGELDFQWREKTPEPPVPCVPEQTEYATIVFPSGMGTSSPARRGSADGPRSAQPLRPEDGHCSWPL
binder,measurement,setting,value
ICOSL 2264 (monomeric variant ICOSL IgV N52H/N57Y/Q100R) (ligand) DTQEKEVRAMVGSDVELSCACPEGSRFDLNDVYVYWQTSESKTVVTYHIPQHSSLEYVDSRYRNRALMSPAGMLRGDFSLRLFNVTPQDEQKFHCLVLSRSLGFQEVLSVEVTLHVAANFSV,MFI,human PD-1 (human),1510
same,MFI,CD28 (human),16100
same,MFI,human CTLA-4 (human),70800
Variant CD80 E35D/A71D Fc fusion (Table E14B) (Fc fusion) VIHVTKEVKEVATLSCGHNVSVEELAQTRIYWQKDKKMVLTMMSGDMNIWPEYKNRTIFDITNNLSIVILDLRPSDEGTYECVVLKYEKDAFKREHLAEVT,MFI at 66.6 nM,CTLA-4 (human),150000 MFI
same,MFI at 22.2 nM,PD-L1 (human),13800 MFI
"variant CD155 IgV-Fc, S42L, S52Q, L104E (Fc fusion) WPPPGTGDVVVQAPTQVPGFLGDSVTLPCYLQVPNMEVTHVLQLTWARHGEQGSMAVFHQTQGPSYSESKRLEFVAARLGAELRNASLRMFGLRVEDEGNYTCEFVTFPQGSRSVDIWLRVL",MFI at 100 nM,CD96 (human),1700
same,MFI at 100 nM,CD226 (human),6470
"variant CD155 IgV-Fc, T45Q, S52R, L104E (Fc fusion) WPPPGTGDVVVQAPTQVPGFLGDSVTLPCYLQVPNMEVTHVSQLQWARHGERGSMAVFHQTQGPSYSESKRLEFVAARLGAELRNASLRMFGLRVEDEGNYTCEFVTFPQGSRSVDIWLRVL",MFI at 100 nM,CD96 (human),3750
